Laboratory results from the supplement of paper PMC10065799, “High-throughput profiling of sequence recognition by tyrosine kinases and SH2 domains using bacterial peptide display” (eLife, 2023).

How the values were obtained:
[1] = tested on: AncSZ; test: phosphorylation enrichment, bacterial display (enrichment ratio); higher = better substrate or ligand; peptides without Tyr show the background
[2] = biological target: EPHB1 (UniProt P54762); test: as above
[3] = biological target: EPHB2 (UniProt P29323); test: as above
[4] = biological target: FGFR1 (UniProt P11362); test: as above
FGFR1, sequence (P11362 whole entry, looked up): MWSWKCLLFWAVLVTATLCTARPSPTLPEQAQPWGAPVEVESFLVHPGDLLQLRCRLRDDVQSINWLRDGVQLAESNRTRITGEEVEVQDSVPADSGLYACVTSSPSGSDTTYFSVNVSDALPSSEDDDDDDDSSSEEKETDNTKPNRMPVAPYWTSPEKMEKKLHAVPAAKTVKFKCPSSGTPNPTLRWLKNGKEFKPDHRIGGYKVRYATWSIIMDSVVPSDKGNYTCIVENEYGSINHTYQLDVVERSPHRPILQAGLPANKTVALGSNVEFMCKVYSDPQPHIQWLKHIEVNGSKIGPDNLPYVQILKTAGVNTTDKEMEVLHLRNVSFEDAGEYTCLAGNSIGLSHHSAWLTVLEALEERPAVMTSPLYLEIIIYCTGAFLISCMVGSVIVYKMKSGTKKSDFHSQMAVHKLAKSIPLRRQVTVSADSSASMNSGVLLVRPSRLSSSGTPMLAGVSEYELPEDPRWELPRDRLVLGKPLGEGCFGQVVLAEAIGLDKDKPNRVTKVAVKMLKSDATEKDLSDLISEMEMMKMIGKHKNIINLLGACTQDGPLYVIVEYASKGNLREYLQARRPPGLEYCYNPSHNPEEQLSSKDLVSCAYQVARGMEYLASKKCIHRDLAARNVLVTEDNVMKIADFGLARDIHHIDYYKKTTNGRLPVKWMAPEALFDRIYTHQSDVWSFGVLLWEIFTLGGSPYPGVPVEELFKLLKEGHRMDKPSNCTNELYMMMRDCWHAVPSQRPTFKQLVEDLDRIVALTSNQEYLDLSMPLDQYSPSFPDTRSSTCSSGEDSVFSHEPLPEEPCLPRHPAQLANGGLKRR

[5] = biological target: FGFR3 (UniProt P22607); test: as above
FGFR3, sequence (P22607 whole entry, looked up): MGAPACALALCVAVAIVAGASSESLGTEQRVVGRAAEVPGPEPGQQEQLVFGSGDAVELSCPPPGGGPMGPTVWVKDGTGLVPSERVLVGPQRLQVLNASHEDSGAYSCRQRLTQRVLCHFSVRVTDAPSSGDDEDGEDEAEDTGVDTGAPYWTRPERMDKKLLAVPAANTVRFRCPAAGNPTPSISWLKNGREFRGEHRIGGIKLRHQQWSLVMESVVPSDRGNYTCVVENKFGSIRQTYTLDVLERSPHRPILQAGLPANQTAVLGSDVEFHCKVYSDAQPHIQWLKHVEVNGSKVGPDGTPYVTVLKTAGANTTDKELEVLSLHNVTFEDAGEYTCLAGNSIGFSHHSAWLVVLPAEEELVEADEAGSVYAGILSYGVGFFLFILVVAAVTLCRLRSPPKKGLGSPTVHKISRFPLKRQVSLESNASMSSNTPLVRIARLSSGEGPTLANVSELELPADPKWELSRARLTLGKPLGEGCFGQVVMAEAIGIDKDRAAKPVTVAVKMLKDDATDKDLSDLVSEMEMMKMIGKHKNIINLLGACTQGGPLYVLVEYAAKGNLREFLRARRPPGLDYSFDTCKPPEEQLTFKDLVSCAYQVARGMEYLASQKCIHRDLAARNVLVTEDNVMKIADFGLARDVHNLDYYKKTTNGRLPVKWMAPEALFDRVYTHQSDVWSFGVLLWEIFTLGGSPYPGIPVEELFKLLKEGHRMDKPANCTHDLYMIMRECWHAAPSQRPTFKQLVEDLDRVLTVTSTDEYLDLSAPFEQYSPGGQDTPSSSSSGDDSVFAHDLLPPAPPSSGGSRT

[6] = tested on: Fer (mouse); test: as above
[7] = biological target: Fes (UniProt P07332); test: as above
Fes, sequence (P07332 whole entry, looked up): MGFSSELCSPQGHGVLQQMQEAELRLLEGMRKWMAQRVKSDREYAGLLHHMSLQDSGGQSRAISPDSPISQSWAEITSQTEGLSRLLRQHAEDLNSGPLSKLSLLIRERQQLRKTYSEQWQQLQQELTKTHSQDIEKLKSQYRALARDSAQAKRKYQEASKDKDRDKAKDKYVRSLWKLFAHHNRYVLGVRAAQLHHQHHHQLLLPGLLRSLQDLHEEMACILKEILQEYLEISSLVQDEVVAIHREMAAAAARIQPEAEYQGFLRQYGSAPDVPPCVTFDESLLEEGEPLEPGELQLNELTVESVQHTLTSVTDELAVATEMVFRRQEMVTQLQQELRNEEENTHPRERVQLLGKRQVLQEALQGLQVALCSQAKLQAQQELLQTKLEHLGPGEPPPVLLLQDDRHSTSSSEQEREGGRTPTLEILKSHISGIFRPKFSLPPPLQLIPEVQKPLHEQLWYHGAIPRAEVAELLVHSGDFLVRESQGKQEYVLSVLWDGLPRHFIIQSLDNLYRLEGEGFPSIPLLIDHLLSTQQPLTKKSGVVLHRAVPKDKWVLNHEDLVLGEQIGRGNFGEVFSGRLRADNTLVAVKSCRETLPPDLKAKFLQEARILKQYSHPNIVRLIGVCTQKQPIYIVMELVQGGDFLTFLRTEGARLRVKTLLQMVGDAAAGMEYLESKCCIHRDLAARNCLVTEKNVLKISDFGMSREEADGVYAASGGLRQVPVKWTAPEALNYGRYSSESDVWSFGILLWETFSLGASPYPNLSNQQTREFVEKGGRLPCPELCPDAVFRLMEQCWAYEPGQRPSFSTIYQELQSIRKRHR

[8] = biological target: Fyn (UniProt P06241); test: as above
Fyn, sequence (P06241 whole entry, looked up): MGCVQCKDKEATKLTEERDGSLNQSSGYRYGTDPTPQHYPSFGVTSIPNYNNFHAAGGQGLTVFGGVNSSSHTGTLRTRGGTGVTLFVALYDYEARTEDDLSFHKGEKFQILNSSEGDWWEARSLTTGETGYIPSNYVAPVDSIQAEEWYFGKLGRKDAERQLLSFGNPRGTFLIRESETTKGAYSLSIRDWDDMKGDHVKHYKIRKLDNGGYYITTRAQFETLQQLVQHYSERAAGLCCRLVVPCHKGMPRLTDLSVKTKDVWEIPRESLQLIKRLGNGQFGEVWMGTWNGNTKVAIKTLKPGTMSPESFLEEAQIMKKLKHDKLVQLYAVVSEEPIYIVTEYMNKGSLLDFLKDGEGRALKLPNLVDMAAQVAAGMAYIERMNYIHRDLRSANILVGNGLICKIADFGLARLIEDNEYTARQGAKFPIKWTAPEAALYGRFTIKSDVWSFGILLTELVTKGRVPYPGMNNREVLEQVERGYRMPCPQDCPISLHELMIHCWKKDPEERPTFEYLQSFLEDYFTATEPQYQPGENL

[9] = biological target: Hck (UniProt P08631); test: as above
[10] = biological target: Jak2 (UniProt O60674); test: as above
Jak2, sequence (O60674 whole entry, looked up): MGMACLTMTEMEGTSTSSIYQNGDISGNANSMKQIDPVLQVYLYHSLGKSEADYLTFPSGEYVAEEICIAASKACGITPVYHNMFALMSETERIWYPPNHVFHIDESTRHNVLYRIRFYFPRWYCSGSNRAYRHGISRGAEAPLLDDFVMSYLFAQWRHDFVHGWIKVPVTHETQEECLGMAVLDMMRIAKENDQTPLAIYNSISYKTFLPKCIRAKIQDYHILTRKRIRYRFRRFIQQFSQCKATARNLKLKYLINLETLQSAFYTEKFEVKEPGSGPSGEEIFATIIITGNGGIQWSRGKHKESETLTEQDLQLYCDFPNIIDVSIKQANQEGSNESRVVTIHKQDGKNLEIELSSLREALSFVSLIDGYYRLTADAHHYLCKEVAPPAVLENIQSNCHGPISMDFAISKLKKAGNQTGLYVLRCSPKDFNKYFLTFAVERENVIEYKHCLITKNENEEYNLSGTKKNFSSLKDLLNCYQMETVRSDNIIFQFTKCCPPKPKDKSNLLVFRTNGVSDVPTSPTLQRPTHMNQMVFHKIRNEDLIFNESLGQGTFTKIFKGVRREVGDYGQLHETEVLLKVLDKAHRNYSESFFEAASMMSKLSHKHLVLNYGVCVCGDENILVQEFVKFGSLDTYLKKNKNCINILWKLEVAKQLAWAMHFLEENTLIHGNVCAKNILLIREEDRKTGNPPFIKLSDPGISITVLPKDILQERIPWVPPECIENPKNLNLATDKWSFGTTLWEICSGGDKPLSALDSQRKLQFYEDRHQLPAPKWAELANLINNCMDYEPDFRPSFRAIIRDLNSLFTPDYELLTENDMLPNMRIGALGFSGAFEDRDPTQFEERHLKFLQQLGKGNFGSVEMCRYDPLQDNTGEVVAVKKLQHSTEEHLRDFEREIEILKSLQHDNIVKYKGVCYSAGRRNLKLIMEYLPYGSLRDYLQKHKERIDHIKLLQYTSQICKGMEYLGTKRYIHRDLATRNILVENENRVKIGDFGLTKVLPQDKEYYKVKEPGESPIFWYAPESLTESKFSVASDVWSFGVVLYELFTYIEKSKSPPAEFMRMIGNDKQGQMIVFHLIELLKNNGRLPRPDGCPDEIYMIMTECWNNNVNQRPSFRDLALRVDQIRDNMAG

[11] = biological target: MERTK (UniProt Q12866); test: as above
[12] = tested on: c-Abl (mouse); test: as above
[13] = tested on: c-Src; test: as above
[14] = biological target: Grb2 SH2 (UniProt P62993); test: SH2 binding enrichment of the phosphorylated peptide, bacterial display (enrichment ratio); higher = better substrate or ligand; peptides without Tyr show the background
[15] = biological target: SHP2-C SH2; test: as above
[16] = biological target: c-Src SH2; test: as above
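Throughout, for SH2 binding enrichment of the phosphorylated peptide, bacterial display: peptide library displayed on the E. coli surface as eCPX fusions, selected cells deep-sequenced, score is each peptide's frequency after selection divided by its frequency in the input.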
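Throughout, for phosphorylation enrichment, bacterial display: 11-residue human phosphosite peptides and single-mutation variants displayed on the E. coli surface, counted by deep sequencing, each peptide's frequency after selection divided by its frequency in the unselected input library; frequency after pTyr selection over input frequency; kinase dosed for 20-30% of maximal phosphorylation in three min.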

EPHB1, sequence (P54762 whole entry, looked up): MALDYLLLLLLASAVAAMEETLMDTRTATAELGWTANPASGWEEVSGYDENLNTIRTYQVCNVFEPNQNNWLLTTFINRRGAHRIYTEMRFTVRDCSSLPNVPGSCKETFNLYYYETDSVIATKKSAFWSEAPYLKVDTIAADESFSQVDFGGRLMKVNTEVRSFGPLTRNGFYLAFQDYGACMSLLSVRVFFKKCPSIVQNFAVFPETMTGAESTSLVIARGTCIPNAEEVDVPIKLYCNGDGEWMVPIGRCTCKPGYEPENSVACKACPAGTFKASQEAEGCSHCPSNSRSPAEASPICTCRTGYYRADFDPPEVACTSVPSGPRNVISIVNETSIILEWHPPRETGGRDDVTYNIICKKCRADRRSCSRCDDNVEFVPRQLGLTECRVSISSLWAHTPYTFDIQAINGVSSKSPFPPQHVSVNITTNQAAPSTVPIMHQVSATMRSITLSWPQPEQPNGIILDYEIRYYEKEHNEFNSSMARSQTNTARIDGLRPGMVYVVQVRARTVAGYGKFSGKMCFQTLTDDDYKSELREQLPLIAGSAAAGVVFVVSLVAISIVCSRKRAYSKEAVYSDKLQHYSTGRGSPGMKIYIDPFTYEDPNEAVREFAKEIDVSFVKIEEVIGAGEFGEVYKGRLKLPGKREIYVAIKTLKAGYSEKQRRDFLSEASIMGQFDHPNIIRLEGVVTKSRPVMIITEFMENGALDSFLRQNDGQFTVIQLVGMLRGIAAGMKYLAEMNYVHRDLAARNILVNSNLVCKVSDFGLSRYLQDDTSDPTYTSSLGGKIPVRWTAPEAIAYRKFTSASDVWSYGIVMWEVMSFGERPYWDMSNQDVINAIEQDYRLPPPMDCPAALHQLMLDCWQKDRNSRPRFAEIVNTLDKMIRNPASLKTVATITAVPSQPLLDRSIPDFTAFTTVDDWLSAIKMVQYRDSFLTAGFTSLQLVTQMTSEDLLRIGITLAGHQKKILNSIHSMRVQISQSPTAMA

Sequence	SH2 binding enrichment [14]	SH2 binding enrichment [15]	SH2 binding enrichment [16]	phosphorylation enrichment [1]	phosphorylation enrichment [2]	phosphorylation enrichment [3]	phosphorylation enrichment [4]	phosphorylation enrichment [5]	phosphorylation enrichment [6]	phosphorylation enrichment [7]	phosphorylation enrichment [8]	phosphorylation enrichment [9]	phosphorylation enrichment [10]	phosphorylation enrichment [11]	phosphorylation enrichment [12]	phosphorylation enrichment [13]
LLEGKYEWQEV [CDKN1B_Y74_P69L]	0.801	0.464	3.24	2	1.45	1.43	1.14	1.48	1.75	2.74	0.908	0.889	3	0.964	1.79	1.01
KNEVLYDEENH [ARFGEF1_Y314_G316E]	0.664	0.789	0.636	1.25	0.568	0.618	0.591	0.671	0.5	1.4	0.537	0.547	1.3	0.401	0.997	0.582
RLQEDYDHSFF [ESD_Y258_G257D_YF]	0.901	0.914	0.339	1.74	1.21	0.912	0.842	1.2	0.919	1.55	0.792	0.869	1.65	0.649	1.19	1.07
HNVPIYEGYGL [ACTA1_Y168_A172G]	0.755	0.886	1.33	1.52	31.8	41.9	0.666	0.941	27.9	5.48	20	17.4	0.805	10.9	3.23	11.5
IQKKFYRAILE [CHD7_Y1218_YF]	0.769	0.699	0.685	0.523	0.396	0.275	0.37	0.46	0.398	0.727	0.344	0.332	0.636	0.409	0.51	0.414
EYGRRYGFSRQ [CCDC93_Y209]	0.676	0.572	0.474	0.577	0.41	0.393	0.389	0.588	0.309	0.646	0.424	0.438	0.475	0.534	0.525	0.419
IHFAIYFLKYS [ARMC9_Y107_L108F]	1.18	1.22	1.11	1.21	0.789	0.718	0.666	1.01	0.586	1.41	0.723	0.787	1.73	0.529	1.09	0.585
KSLFHHRQYSA [CPS1_Y1491_Y1491H]	0.618	0.613	0.341	0.573	1.04	0.491	0.563	0.412	0.439	0.547	0.519	0.488	0.555	0.472	0.504	0.478
ADSLRYIYPKL [EIF2B3_Y92]	1.05	1.89	12.5	0.552	0.416	0.362	0.354	0.463	0.339	0.602	0.332	0.386	0.634	0.43	0.471	0.472
LRVHSYKSMQH [DRC7_Y516_P521H]	0.881	1.18	0.841	1.4	0.911	0.772	0.533	0.69	0.949	0.883	0.954	0.634	1.42	0.896	1.13	1.06
PPKFFYTRKLL [CYBB_Y41]	1.01	0.709	0.461	1.12	0.457	0.683	1.22	0.614	0.513	0.801	0.779	0.462	0.658	0.766	0.694	0.439
ANNEYYFRVCA	0.646	0.461	0.402	1.4	0.895	0.759	1.89	1.94	0.469	1.4	0.471	0.657	1.53	0.439	1.08	0.526

The next lines start with results.

SH2 binding enrichment [14]	SH2 binding enrichment [15]	SH2 binding enrichment [16]	Sequence	phosphorylation enrichment [1]	phosphorylation enrichment [2]	phosphorylation enrichment [3]	phosphorylation enrichment [4]	phosphorylation enrichment [5]	phosphorylation enrichment [6]	phosphorylation enrichment [7]	phosphorylation enrichment [8]	phosphorylation enrichment [9]	phosphorylation enrichment [10]	phosphorylation enrichment [11]	phosphorylation enrichment [12]	phosphorylation enrichment [13]
1.02	1.5	0.591	FQKNIYSEELR [LMNA_Y211]	1.01	0.84	0.728	0.801	1.2	0.516	1.24	0.965	1.07	1.04	5.8	1.04	1.81
0.766	0.713	0.98	MAYDRYVAICS [OR8D4_Y123_C120Y]	1.01	1.28	2.12	0.603	0.753	0.547	1.01	0.486	0.745	1.15	0.77	1.03	0.762
1.35	1.25	1.14	AGLVQYYMEHH [PTPN11_Y80_E76G]	0.677	0.973	0.777	0.608	0.73	0.499	0.939	0.545	0.754	0.607	0.49	0.448	0.468
0.851	85.4	3.11	PQAVTYATVKH [LILRB4_Y360_K362T]	0.655	0.735	0.615	0.423	0.607	0.624	0.776	1.72	2.92	0.882	0.543	0.856	2.83
0.903	0.59	0.762	SVVAPYEPPEV [TP53_Y220_V218A]	1.34	0.629	0.617	0.528	0.753	0.578	1.48	0.67	0.624	1.1	0.629	1.08	0.672
0.841	0.652	0.583	LKRIAYFLCLR [LGI1_Y21_L26R]	0.997	0.372	0.413	0.365	0.601	0.435	1.06	0.399	0.37	0.949	0.359	0.708	0.341
0.928	0.871	5.92	NTGGYYDLYGG [PTPN11_Y63_D61G]	1.51	1.98	3.74	13.3	10.8	3.33	1.18	8.66	8.38	5.82	7.92	0.756	5.05
0.74	0.927	0.387	SVDRDYVLKSA [HTATIP2_Y111_R106S]	0.66	0.546	0.403	0.487	0.54	0.403	0.755	0.439	0.399	0.571	0.4	0.699	0.426
0.867	0.743	0.551	LNCIYYKDQTG [RS1_Y166_W163C]	3.56	3.64	1.15	2.69	4.51	1.55	3.26	2.93	4.01	1.42	1.78	1.08	1.4
0.754	0.651	1.79	HITQVYGFYDE [PPP2CA_Y127_Q122H]	2.11	1.31	1.85	2.27	1.26	2.21	1.79	13.2	5.95	1.88	2.79	1.58	12.3
0.681	0.551	0.399	NLFIEYPTGSG [IRF2BPL_Y423_K418N]	1.14	0.504	0.548	0.582	0.7	0.639	1.02	0.568	0.497	0.828	0.519	0.95	0.56
0.979	0.697	0.586	VCDSDYSASRW [LRP5_Y1552]	1.16	0.691	0.877	0.449	0.684	0.455	1.02	0.603	0.518	0.731	0.382	0.737	0.518
0.763	0.614	0.544	SHNELYFEAAE [VANGL1_Y344_E347A_YF]	1.11	0.509	0.733	1.13	1.1	0.476	1.04	0.591	0.656	0.781	0.543	0.624	0.522
0.93	0.676	0.423	DRLASYLEKVR [KRT13_Y118]	0.736	0.372	0.399	0.393	0.384	0.424	0.677	0.366	0.375	0.616	0.424	0.451	0.412
0.628	0.412	0.606	QRRLIYRCQVG [NR2E3_Y81_R76Q]	0.968	0.622	0.728	0.579	0.845	0.643	0.861	0.764	0.629	1.03	0.652	0.595	0.569
0.744	0.659	0.451	GNLQEYLTRHV [TGFBR2_Y336]	0.794	0.474	0.564	0.516	0.584	0.462	0.828	0.455	0.465	0.581	0.368	0.667	0.363
1.05	0.68	0.747	QKPLDYFRVNL [GALE_Y104_YF]	1.41	1	0.636	7.69	4.41	0.643	1.59	0.58	0.647	8.52	0.647	0.905	0.711
